*1 amine or outer side, *2 acyl side, *3 side chain or, on linkers, in order; H or OH if unused. Side-chain parts run from the residue outwards. The star is where a group is joined. C18 diacid = O=C(O)CCCCCCCCCCCCCCCCC(=O)*; γGlu = O=C(O)[C@H](CCC(=O)[*:2])N[*:1]; Isovaleryl = CC(C)CC(=O)*; AEEA = NCCOCCOCC(=O)O
Biological target: T1, human neuropeptide Y2 receptor (human, UniProt P49146 1-381)
T1 construct: whole, on cells; also called hNPY2 receptor; hNPY2-R
T1 sequence (looked up): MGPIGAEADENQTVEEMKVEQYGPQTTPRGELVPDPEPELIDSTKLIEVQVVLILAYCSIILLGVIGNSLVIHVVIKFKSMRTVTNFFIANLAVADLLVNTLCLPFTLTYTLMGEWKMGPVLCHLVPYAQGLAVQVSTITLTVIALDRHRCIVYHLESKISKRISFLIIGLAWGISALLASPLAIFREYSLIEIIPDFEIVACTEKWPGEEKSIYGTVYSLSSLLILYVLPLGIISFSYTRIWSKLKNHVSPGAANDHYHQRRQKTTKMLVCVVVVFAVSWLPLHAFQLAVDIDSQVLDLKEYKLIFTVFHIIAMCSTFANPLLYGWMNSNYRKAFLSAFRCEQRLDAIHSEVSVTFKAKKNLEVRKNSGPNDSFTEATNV
Assay: radioligand competition (125I-PYY(1-36)), hNPY2R membranes
Procedure, shortened: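 Commercial human Y2 receptor membranes (0.5 μg protein/well) were incubated with peptide for 2 h at room temperature in 50 mM HEPES, 5 mM MgCl₂, 1 mM CaCl₂, pH 7.4, with 0.2% ovalbumin. Bound radioligand was separated on PEI-soaked GF/C filters and counted by scintillation, and IC₅₀ came from nonlinear sigmoidal regression.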

B1: Compound 138 (peptide)
peptide: Isovaleryl-APAK([AEEA-AEEA-γGlu-C18 diacid])PEEDASPEELQQYYVSLRHYYNWLTRQRY-NH2
SMILES: CC(C)CC(=O)N[C@@H](C)C(=O)N1CCC[C@H]1C(=O)N[C@@H](C)C(=O)N[C@@H](CCCCNC(=O)COCCOCCNC(=O)COCCOCCNC(=O)CC[C@H](NC(=O)CCCCCCCCCCCCCCCCC(=O)O)C(=O)O)C(=O)N1CCC[C@H]1C(=O)N[C@@H](CCC(=O)O)C(=O)N[C@@H](CCC(=O)O)C(=O)N[C@@H](CC(=O)O)C(=O)N[C@@H](C)C(=O)N[C@@H](CO)C(=O)N1CCC[C@H]1C(=O)N[C@@H](CCC(=O)O)C(=O)N[C@@H](CCC(=O)O)C(=O)N[C@@H](CC(C)C)C(=O)N[C@@H](CCC(N)=O)C(=O)N[C@@H](CCC(N)=O)C(=O)N[C@@H](Cc1ccc(O)cc1)C(=O)N[C@@H](Cc1ccc(O)cc1)C(=O)N[C@H](C(=O)N[C@@H](CO)C(=O)N[C@@H](CC(C)C)C(=O)N[C@@H](CCCNC(=N)N)C(=O)N[C@@H](Cc1c[nH]cn1)C(=O)N[C@@H](Cc1ccc(O)cc1)C(=O)N[C@@H](Cc1ccc(O)cc1)C(=O)N[C@@H](CC(N)=O)C(=O)N[C@@H](Cc1c[nH]c2ccccc12)C(=O)N[C@@H](CC(C)C)C(=O)N[C@H](C(=O)N[C@@H](CCCNC(=N)N)C(=O)N[C@@H](CCC(N)=O)C(=O)N[C@@H](CCCNC(=N)N)C(=O)N[C@@H](Cc1ccc(O)cc1)C(N)=O)[C@@H](C)O)C(C)C
  Ki: 1.42 nM

B2: Compound 144 (peptide)
peptide: Isovaleryl-APEK([AEEA-AEEA-γGlu-C18 diacid])AEEDASPEELQQYYVSLRHYYNWLTRQRY-NH2
SMILES: CC(C)CC(=O)N[C@@H](C)C(=O)N1CCC[C@H]1C(=O)N[C@@H](CCC(=O)O)C(=O)N[C@@H](CCCCNC(=O)COCCOCCNC(=O)COCCOCCNC(=O)CC[C@H](NC(=O)CCCCCCCCCCCCCCCCC(=O)O)C(=O)O)C(=O)N[C@@H](C)C(=O)N[C@@H](CCC(=O)O)C(=O)N[C@@H](CCC(=O)O)C(=O)N[C@@H](CC(=O)O)C(=O)N[C@@H](C)C(=O)N[C@@H](CO)C(=O)N1CCC[C@H]1C(=O)N[C@@H](CCC(=O)O)C(=O)N[C@@H](CCC(=O)O)C(=O)N[C@@H](CC(C)C)C(=O)N[C@@H](CCC(N)=O)C(=O)N[C@@H](CCC(N)=O)C(=O)N[C@@H](Cc1ccc(O)cc1)C(=O)N[C@@H](Cc1ccc(O)cc1)C(=O)N[C@H](C(=O)N[C@@H](CO)C(=O)N[C@@H](CC(C)C)C(=O)N[C@@H](CCCNC(=N)N)C(=O)N[C@@H](Cc1c[nH]cn1)C(=O)N[C@@H](Cc1ccc(O)cc1)C(=O)N[C@@H](Cc1ccc(O)cc1)C(=O)N[C@@H](CC(N)=O)C(=O)N[C@@H](Cc1c[nH]c2ccccc12)C(=O)N[C@@H](CC(C)C)C(=O)N[C@H](C(=O)N[C@@H](CCCNC(=N)N)C(=O)N[C@@H](CCC(N)=O)C(=O)N[C@@H](CCCNC(=N)N)C(=O)N[C@@H](Cc1ccc(O)cc1)C(N)=O)[C@@H](C)O)C(C)C
  Ki: 8.92 nM

B3: Compound 141 (peptide)
peptide: Isovaleryl-APEK([AEEA-AEEA-γGlu-C18 diacid])PEEAASPEELQRYYVSARHYYNWLTRQRY-NH2
SMILES: CC(C)CC(=O)N[C@@H](C)C(=O)N1CCC[C@H]1C(=O)N[C@@H](CCC(=O)O)C(=O)N[C@@H](CCCCNC(=O)COCCOCCNC(=O)COCCOCCNC(=O)CC[C@H](NC(=O)CCCCCCCCCCCCCCCCC(=O)O)C(=O)O)C(=O)N1CCC[C@H]1C(=O)N[C@@H](CCC(=O)O)C(=O)N[C@@H](CCC(=O)O)C(=O)N[C@@H](C)C(=O)N[C@@H](C)C(=O)N[C@@H](CO)C(=O)N1CCC[C@H]1C(=O)N[C@@H](CCC(=O)O)C(=O)N[C@@H](CCC(=O)O)C(=O)N[C@@H](CC(C)C)C(=O)N[C@@H](CCC(N)=O)C(=O)N[C@@H](CCCNC(=N)N)C(=O)N[C@@H](Cc1ccc(O)cc1)C(=O)N[C@@H](Cc1ccc(O)cc1)C(=O)N[C@H](C(=O)N[C@@H](CO)C(=O)N[C@@H](C)C(=O)N[C@@H](CCCNC(=N)N)C(=O)N[C@@H](Cc1c[nH]cn1)C(=O)N[C@@H](Cc1ccc(O)cc1)C(=O)N[C@@H](Cc1ccc(O)cc1)C(=O)N[C@@H](CC(N)=O)C(=O)N[C@@H](Cc1c[nH]c2ccccc12)C(=O)N[C@@H](CC(C)C)C(=O)N[C@H](C(=O)N[C@@H](CCCNC(=N)N)C(=O)N[C@@H](CCC(N)=O)C(=O)N[C@@H](CCCNC(=N)N)C(=O)N[C@@H](Cc1ccc(O)cc1)C(N)=O)[C@@H](C)O)C(C)C
  Ki: 3.12 nM

B4: Compound 139 (peptide)
peptide: Isovaleryl-APEK([AEEA-AEEA-γGlu-C18 diacid])PEEESSPEELQRYYVSLRHYYNWLTRQRY-NH2
SMILES: CC(C)CC(=O)N[C@@H](C)C(=O)N1CCC[C@H]1C(=O)N[C@@H](CCC(=O)O)C(=O)N[C@@H](CCCCNC(=O)COCCOCCNC(=O)COCCOCCNC(=O)CC[C@H](NC(=O)CCCCCCCCCCCCCCCCC(=O)O)C(=O)O)C(=O)N1CCC[C@H]1C(=O)N[C@@H](CCC(=O)O)C(=O)N[C@@H](CCC(=O)O)C(=O)N[C@@H](CCC(=O)O)C(=O)N[C@@H](CO)C(=O)N[C@@H](CO)C(=O)N1CCC[C@H]1C(=O)N[C@@H](CCC(=O)O)C(=O)N[C@@H](CCC(=O)O)C(=O)N[C@@H](CC(C)C)C(=O)N[C@@H](CCC(N)=O)C(=O)N[C@@H](CCCNC(=N)N)C(=O)N[C@@H](Cc1ccc(O)cc1)C(=O)N[C@@H](Cc1ccc(O)cc1)C(=O)N[C@H](C(=O)N[C@@H](CO)C(=O)N[C@@H](CC(C)C)C(=O)N[C@@H](CCCNC(=N)N)C(=O)N[C@@H](Cc1c[nH]cn1)C(=O)N[C@@H](Cc1ccc(O)cc1)C(=O)N[C@@H](Cc1ccc(O)cc1)C(=O)N[C@@H](CC(N)=O)C(=O)N[C@@H](Cc1c[nH]c2ccccc12)C(=O)N[C@@H](CC(C)C)C(=O)N[C@H](C(=O)N[C@@H](CCCNC(=N)N)C(=O)N[C@@H](CCC(N)=O)C(=O)N[C@@H](CCCNC(=N)N)C(=O)N[C@@H](Cc1ccc(O)cc1)C(N)=O)[C@@H](C)O)C(C)C
  Ki: 3.83 nM

B5: Compound 145 (peptide)
peptide: Isovaleryl-APEK([AEEA-AEEA-γGlu-C18 diacid])PEEDSSPEEIQRYYVSLRHYYNWLTRQRY-NH2
SMILES: CC[C@H](C)[C@H](NC(=O)[C@H](CCC(=O)O)NC(=O)[C@H](CCC(=O)O)NC(=O)[C@@H]1CCCN1C(=O)[C@H](CO)NC(=O)[C@H](CO)NC(=O)[C@H](CC(=O)O)NC(=O)[C@H](CCC(=O)O)NC(=O)[C@H](CCC(=O)O)NC(=O)[C@@H]1CCCN1C(=O)[C@H](CCCCNC(=O)COCCOCCNC(=O)COCCOCCNC(=O)CC[C@H](NC(=O)CCCCCCCCCCCCCCCCC(=O)O)C(=O)O)NC(=O)[C@H](CCC(=O)O)NC(=O)[C@@H]1CCCN1C(=O)[C@H](C)NC(=O)CC(C)C)C(=O)N[C@@H](CCC(N)=O)C(=O)N[C@@H](CCCNC(=N)N)C(=O)N[C@@H](Cc1ccc(O)cc1)C(=O)N[C@@H](Cc1ccc(O)cc1)C(=O)N[C@H](C(=O)N[C@@H](CO)C(=O)N[C@@H](CC(C)C)C(=O)N[C@@H](CCCNC(=N)N)C(=O)N[C@@H](Cc1c[nH]cn1)C(=O)N[C@@H](Cc1ccc(O)cc1)C(=O)N[C@@H](Cc1ccc(O)cc1)C(=O)N[C@@H](CC(N)=O)C(=O)N[C@@H](Cc1c[nH]c2ccccc12)C(=O)N[C@@H](CC(C)C)C(=O)N[C@H](C(=O)N[C@@H](CCCNC(=N)N)C(=O)N[C@@H](CCC(N)=O)C(=O)N[C@@H](CCCNC(=N)N)C(=O)N[C@@H](Cc1ccc(O)cc1)C(N)=O)[C@@H](C)O)C(C)C
  Ki: 1.55 nM

B6: Compound 142 (peptide)
peptide: Isovaleryl-APEK([AEEA-AEEA-γGlu-C18 diacid])PPEEASPEELQRYYVSLRHYYNWLTRQRY-NH2
SMILES: CC(C)CC(=O)N[C@@H](C)C(=O)N1CCC[C@H]1C(=O)N[C@@H](CCC(=O)O)C(=O)N[C@@H](CCCCNC(=O)COCCOCCNC(=O)COCCOCCNC(=O)CC[C@H](NC(=O)CCCCCCCCCCCCCCCCC(=O)O)C(=O)O)C(=O)N1CCC[C@H]1C(=O)N1CCC[C@H]1C(=O)N[C@@H](CCC(=O)O)C(=O)N[C@@H](CCC(=O)O)C(=O)N[C@@H](C)C(=O)N[C@@H](CO)C(=O)N1CCC[C@H]1C(=O)N[C@@H](CCC(=O)O)C(=O)N[C@@H](CCC(=O)O)C(=O)N[C@@H](CC(C)C)C(=O)N[C@@H](CCC(N)=O)C(=O)N[C@@H](CCCNC(=N)N)C(=O)N[C@@H](Cc1ccc(O)cc1)C(=O)N[C@@H](Cc1ccc(O)cc1)C(=O)N[C@H](C(=O)N[C@@H](CO)C(=O)N[C@@H](CC(C)C)C(=O)N[C@@H](CCCNC(=N)N)C(=O)N[C@@H](Cc1c[nH]cn1)C(=O)N[C@@H](Cc1ccc(O)cc1)C(=O)N[C@@H](Cc1ccc(O)cc1)C(=O)N[C@@H](CC(N)=O)C(=O)N[C@@H](Cc1c[nH]c2ccccc12)C(=O)N[C@@H](CC(C)C)C(=O)N[C@H](C(=O)N[C@@H](CCCNC(=N)N)C(=O)N[C@@H](CCC(N)=O)C(=O)N[C@@H](CCCNC(=N)N)C(=O)N[C@@H](Cc1ccc(O)cc1)C(N)=O)[C@@H](C)O)C(C)C
  Ki: 1.17 nM

— patent US20210139548A1 (published 2021)
